In patent publication US20240293459A1 (published 2024):

Experiments:
Test in all cases: multimer staining
[1] = biological target: T1, SARS-CoV-2 NSP13 helicase; peptide NSP13-242 peptide on HLA-A*02:01 (human)
T1 peptide: TLVPQEHYV

[2] = biological target: T2, SARS-CoV-2 NSP13 helicase; peptide NSP13-400 peptide on HLA-A*24:02 (human)
T2 peptide: VYIGDPAQL

[3] = biological target: SARS-CoV-2 NSP13 helicase; peptide NSP13-448 peptide on HLA-A*01:01 (human)

B1: NSP13-242 TCR (TCR, V domains shown)
Valpha: AQTVTQSQPEMSVQEAETVTLSCTYDTSENNYYLFWYKQPPSRQMILVIRQEAYKQQNATENRFSVNFQKAAKSFSLKISDSQLGDTAMYFCAFMNSNNARLMFGDGTQLVVKP
Vbeta: DAGITQSPRYKITETGRQVTLMCHQTWSHSYMFWYRQDLGHGLRLIYYSAAADITDKGEVPDGYVVSRSKTENFPLTLESATRSQTSVYFCASSPGSVPGGYTFGSGTRLTVV
B1: recognises [1].

B2: NSP13-400 TCR (TCR, V domains shown)
Valpha: RKEVEQDPGPFNVPEGATVAFNCTYSNSASQSFFWYRQDCRKEPKLLMSVYSSGNEDGRFTAQLNRASQYISLLIRDSKLSDSATYLCVVKDSWGKLQFGAGTQVVVTP
Vbeta: DARVTQTPRHKVTEMGQEVTMRCQPILGHNTVFWYRQTMMQGLELLAYFRNRAPLDDSGMPKDRFSAEMPDATLATLKIQPSEPRDSAVYFCASGPSGGWNTIYFGEGSWLTVV
B2: recognises [2].

B3: NSP13-448 TCR (TCR, V domains shown)
Valpha: AQSVTQLGSHVSVSEGALVLLRCNYSSSVPPYLFWYVQYPNQGLQLLLKYTSAATLVKGINGFEAEFKKSETSFHLTKPSAHMSDAAEYFCAVSNSGGGADGLTFGKGTHLIIQP
Vbeta: DGGITQSPKYLFRKEGQNVTLSCEQNLNHDAMYWYRQDPGQGLRLIYYSQIVNDFQKGDIAEGYSVSREKKESFPLTVTSAQKNPTAFYLCASSIMAGGHGELFFGEGSRLTVL
B3: recognises [3].
